{
  "source": "paper doi:10.1101/2021.02.24.432656",
  "about": "(bioRxiv, 2021)",
  "target": "Flag-importin α1 (human, UniProt P52292 1-529)",
  "test": "pull-down",
  "data": [
    {"binder": "GST-GFP fused ORF6 full-length protein (natural protein) MFHLVDFQVTIAEILLIIMRTFKVSIWNLDYIINLIIKNLSKSLTENKYSQLDEEQPMEID", "values": [
      {"measurement": "binding result", "result": "binds"}
    ]}
  ]
}
